This note sets out measurements from patent US20170340735A1 (published 2017).

Numbering of substitutions follows the chain as printed.

The target in assay [1] is T1, human TIGIT on the cell surface (human, UniProt Q495A1 22-244).
T1 sequence: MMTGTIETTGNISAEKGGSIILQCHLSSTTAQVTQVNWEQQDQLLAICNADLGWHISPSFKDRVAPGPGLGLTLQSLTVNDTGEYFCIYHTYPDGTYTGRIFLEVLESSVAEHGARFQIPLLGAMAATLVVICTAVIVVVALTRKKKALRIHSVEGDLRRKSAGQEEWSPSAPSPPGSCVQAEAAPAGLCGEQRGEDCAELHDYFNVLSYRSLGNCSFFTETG
As to the kind of experiment: cell-based or functional assay.

The target in the next assay is T2, human PVRL4-His (human, UniProt Q96NY8 32-349).
T2 construct: also called Nectin-4; not shown: His tag
T2 sequence (looked up): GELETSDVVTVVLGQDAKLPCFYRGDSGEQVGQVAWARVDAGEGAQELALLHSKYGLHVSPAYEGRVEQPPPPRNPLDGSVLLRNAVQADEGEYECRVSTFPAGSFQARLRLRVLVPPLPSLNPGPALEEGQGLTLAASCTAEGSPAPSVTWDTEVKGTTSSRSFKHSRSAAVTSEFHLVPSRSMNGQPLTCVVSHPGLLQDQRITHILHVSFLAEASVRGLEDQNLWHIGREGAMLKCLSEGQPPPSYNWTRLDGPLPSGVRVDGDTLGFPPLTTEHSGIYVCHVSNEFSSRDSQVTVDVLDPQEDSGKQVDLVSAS
As to the kind of experiment: BLI, antibody on AHC sensor, human PVRL4-His in solution. The method, then:
The BLI analysis was performed at 30° C. using 1× kinetics buffer as assay buffer. AHC sensors were first presoaked in assay buffer for greater than 5 minutes. Antibody (5 μg/mL) was captured on the sensor for 300 seconds. Sensors were then dipped in assay buffer for 120 seconds to establish a baseline before measuring binding to human PVRL4-His protein. Sensors were then dipped into human PVRL4-His (200 nM in assay buffer) for 200 seconds to measure association. Dissociation of PVRL4 was then measured by dipping sensors into assay buffer for 200 seconds. Results were analyzed using Octet® Data Analysis Software Version 8.2.0.7.
(In general: Biolayer interferometry detects binding as a change in optical thickness at a sensor tip.)

Assay [2] deals with T3, recombinant monomeric human TIGIT-His (human, UniProt Q495A1 22-141).
T3 construct: also called hTIGIT; not shown: His tag
T3 sequence: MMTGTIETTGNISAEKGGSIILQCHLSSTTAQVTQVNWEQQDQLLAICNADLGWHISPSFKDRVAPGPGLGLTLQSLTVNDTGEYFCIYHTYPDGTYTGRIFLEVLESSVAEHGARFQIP
As to the kind of experiment: BLI (ForteBio), IgG on AHQ sensor, 100 nM monomeric antigen, 1:1 model. As for the experimental part:
(§1) Quantitative binding of antibodies to recombinant monomeric human, mouse (SEQ ID NO: 3), cynomolgus monkey TIGIT was measured using biolayer interferometry (BLI) with a FORTEBIO®. […] FORTEBIO affinity measurements were performed by loading IgGs on-line onto AHQ sensors. Sensors were equilibrated off-line in assay buffer for 30 min and then monitored on-line for 60 seconds for baseline establishment. Sensors with loaded IgGs were exposed to a single concentration of antigen (100 nM) for 3 minutes. Afterwards they were transferred to assay buffer for 3 minutes for off-rate measurement. Kinetics were analyzed using the 1:1 binding model.

Assay [3] deals with T4, recombinant monomeric cynomolgus monkey TIGIT-His (cynomolgus monkey).
T4 construct: also called Cyno TIGIT His; cTIGIT; not shown: His tag
The description is as above. The method, then: as §1

The target of assay [4] is T1, human TIGIT on the cell surface. As to the kind of experiment: flow cytometry, antibody titrated against labeled PVR-Fc binding to human TIGIT Jurkat cells. As for the experimental part:
(§2) Quantitative ligand blocking studies were conducted by using a cell surface TIGIT binding assay.

The target is the same in assay [5]. As to the kind of experiment: flow cytometry, antibody titrated against labeled PVRL2-Fc binding to human TIGIT Jurkat cells. As for the experimental part: as §2
(In flow cytometry, cells or beads pass a laser one at a time.)

Assay [6] addresses T3, recombinant monomeric human TIGIT-His. As to the kind of experiment: BLI (Octet QKe), antibody on AHC sensor, several concentrations of human TIGIT-His, 1:1 global fit, average. As for the experimental part: A strategy of capturing anti-TIGIT antibodies on sensors following association/dissociation of monomeric TIGIT proteins was used to avoid avidity effects in the assay. The BLI analysis was performed at 29° C. using 1× kinetics buffer (ForteBio) as assay buffer. Anti-human IgG Fc capture (AHC) biosensors (ForteBio) were first presoaked in assay buffer for over five minutes. Anti-TIGIT antibody (5 μg/mL) was captured on the sensor for 300 seconds. Sensors were then dipped in assay buffer for 120 seconds to establish a baseline before measuring binding to each TIGIT protein. […] Dissociation of TIGIT was measured by dipping the sensors into assay buffer for 600, 1200, or 1800 seconds, depending on the experiment (600 seconds was only used for mouse TIGIT-His). Agitation at all steps was 1000 rpm.
Kinetic parameters were generated with Octet® Data Analysis Software Version 8.2.0.7 using reference subtraction, dissociation based inter-step correction, 1-to-1 binding model, and global fit (Rₘₐₓ unlinked by sensor).

The target is the same in assay [7]. As to the kind of experiment: MSD-SET solution equilibrium titration, monomeric antigen. The method, then:
See Estep et al., supra, incorporated by reference in its entirety. Briefly, solution equilibrium titrations (SET) were performed in PBS+0.1% IgG-Free BSA (PBSF) with antigen (TIGIT monomer) held constant at 10-100 pM and incubated with 3- to 5-fold serial dilutions of Fab or mAbs starting at 10 pM-10 nM. Antibodies (20 nM in PBS) were coated onto standard bind MSD-ECL plates overnight at 4° C. or at room temperature for 30 min. Plates were then blocked by BSA for 30 min with shaking at 700 rpm, followed by three washes with wash buffer (PBSF+0.05% Tween 20). SET samples were applied and incubated on the plates for 150s with shaking at 700 rpm followed by one wash. Antigen captured on a plate was detected with 250 ng/mL sulfotag-labeled streptavidin in PBSF by incubation on the plate for 3 min. The plates were washed three times with wash buffer and then read on the MSD Sector Imager 2400 instrument using 1× Read Buffer T with surfactant. The percent free antigen was plotted as a function of titrated antibody in Prism and fit to a quadratic equation to extract the KD. To improve throughput, liquid handling robots were used throughout MSD-SET experiments, including SET sample preparation.

T4 sequence (chain, as listed by the source limits assumed): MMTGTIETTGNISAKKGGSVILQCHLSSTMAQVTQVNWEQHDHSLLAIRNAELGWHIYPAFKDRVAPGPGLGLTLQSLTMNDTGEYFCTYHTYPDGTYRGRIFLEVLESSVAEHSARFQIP

B1: MAB18-IgG4 (antibody, V domains shown)
VH: QVQLVQSGAEVKKPGASVKVSCKASGYTFPAYYMHWVRQAPGQGLEWMGIINPSLGLTSYARKFQGRVTMTRDTSTSTVYMELSSLRSEDTAVYYCARGGRTTWIGAFDIWGQGTMVTVSS
VL: EIVMTQSPATLSVSPGERATLSCRASQSVSSNLAWYQQKPGQAPRLLIYGASTRATGIPARFSGSGSGTEFTLTISSLQSEDFAVYYCQQYVVWPPLTFGGGTKVEIKR
For B1, the “Average EC50, IL-2 production, human TIGIT Jurkat/anti-CD3 HT-1080 co-culture assay” value in assay [1] was 0.25 nM. Besides, the binding result with human PVRL4-His is recorded as “no binding (tested: 200 nM)”. For the same molecule, the values for the Kd in assay [2], in assay [3] and in assay [6] were 0.448 nM, 72 nM and 0.81 nM, respectively. Also, the IC50 was found to be 1.8 nM in assay [4] and 1.9 nM in assay [5]. The koff in assay [6] is 0.00059 s⁻¹. In assay [6], the kon was 750000 M⁻¹ s⁻¹.

B2: MAB13-IgG4 (antibody, V domains shown)
VH: B1 VH with P30G, A31N, R62Q
VL: B1 VL
In the case of B2, the “Average EC50, IL-2 production, human TIGIT Jurkat/anti-CD3 HT-1080 co-culture assay” value in assay [1] amounted to 1.4 nM. The binding result with human PVRL4-His is “no binding (tested: 200 nM)”. Moreover, the Kd stood at 0.4 nM in assay [7] and 1.44 nM in assay [2]. Further, the values for the IC50 in assay [4] and in assay [5] were 2.1 nM and 1.8 nM, respectively.

B3: MAB14-IgG4 (antibody, V domains shown)
VH: B1 VH with R62Q
VL: B1 VL
On to B3, for which the “Average EC50, IL-2 production, human TIGIT Jurkat/anti-CD3 HT-1080 co-culture assay” value in assay [1] was found to be 0.71 nM. Also, in the assay with human PVRL4-His, the binding result is on record as “no binding (tested: 200 nM)”. In addition, the dissociation constant Kd in assay [7] was 0.38 nM; in assay [2], 1.23 nM. Also, the IC50 was 2.6 nM in assay [4] and 1.6 nM in assay [5].

B4: MAB15-IgG4 (antibody, V domains shown)
VH: B1 VH with P30R, A31E, L55I
VL: B1 VL
As for B4, in assay [1], the “Average EC50, IL-2 production, human TIGIT Jurkat/anti-CD3 HT-1080 co-culture assay” value was found to be 0.21 nM. Moreover, the binding result with human PVRL4-His is on record as “no binding (tested: 200 nM)”. The Kd in assay [7] amounted to 0.21 nM; in assay [2], 0.526 nM; in assay [3], 79.4 nM; in assay [6], 0.58 nM. In addition, the IC50 worked out at 2.2 nM in assay [4] and 1.1 nM in assay [5]. Moreover, in assay [6], the koff was 0.00066 s⁻¹. Besides, the kon in assay [6] amounted to 1.1e+06 M⁻¹ s⁻¹.

B5: MAB17-IgG4 (antibody, V domains shown)
VH: B1 VH with M34I, F108L
VL: B1 VL
For B5, the “Average EC50, IL-2 production, human TIGIT Jurkat/anti-CD3 HT-1080 co-culture assay” value in assay [1] stood at 0.13 nM. The binding result with human PVRL4-His was “no binding (tested: 200 nM)”. The Kd in assay [7] is 0.041 nM; in assay [2], 0.429 nM; in assay [3], 110 nM. In addition, the IC50 turned out to be 2.6 nM in assay [4] and 1.9 nM in assay [5].

B6: MAB16-IgG4 (antibody, V domains shown)
VH: B1 VH with P30R, A31E, L55I, F108L
VL: B1 VL
Consider B6, for which the “Average EC50, IL-2 production, human TIGIT Jurkat/anti-CD3 HT-1080 co-culture assay” value in assay [1] was 1.11 nM. Also, the binding result with human PVRL4-His is on record as “no binding (tested: 200 nM)”. The Kd in assay [7] worked out at 0.07 nM; in assay [2], 0.378 nM; in assay [3], 70.4 nM; in assay [6], 1.1 nM. The IC50 in assay [4] was 2.1 nM; in assay [5] it was 1.3 nM. Also, the koff in assay [6] stood at 0.00035 s⁻¹. For the same molecule, in assay [6], the association rate constant (kon) is 450000 M⁻¹ s⁻¹.

B7: SEC1 (format not stated) (antibody, V domains shown)
VH: EVQLVESGGGLTQPGKSLKLSCEASGFTFSSFTMHWVRQSPGKGLEWVAFIRSGSGIVFYADAVRGRFTISRDNAKNLLFLQMNDLKSEDTAMYYCARRPLGHNTFDSWGQGTLVTVSS
VL: DIVMTQSPSSLAVSPGEKVTMTCKSSQSLYYSGVKENLLAWYQQKPGQSPKLLIYYASIRFTGVPDRFTGSGSGTDYTLTITSVQAEDMGQYFCQQGINNPLTFGDGTKLEIK
Regarding B7, the “Average EC50, IL-2 production, human TIGIT Jurkat/anti-CD3 HT-1080 co-culture assay” value in assay [1] was determined as 8.46 nM.

B8: MAB19-IgG4 (antibody, V domains shown)
VH: QVQLVQSGAEVKKPGASVKVSCKASGYTFTSHYMGWVRQAPGQGLEWMGVINPSMGATSYAQKFQGRVTMTRDTSTSTVYMELSSLRSEDTAVYYCARLHVSGSYYPAYLDYWGQGTMVTVSS
VL: EIVMTQSPATLSVSPGERATLSCRASQSVSSNLAWYQQKPGQAPRHLIYGASTRATGIPARFSGSGSGTEFTLTISSLQSEDFAVYYCQQYIVFPWTFGGGTKVEIKR
Turning to B8, the “Average EC50, IL-2 production, human TIGIT Jurkat/anti-CD3 HT-1080 co-culture assay” value in assay [1] came out at 0.2 nM. Besides, the binding result with human PVRL4-His is given as “no binding (tested: 200 nM)”. In addition, the IC50 was 6.4 nM in assay [4] and 2 nM in assay [5].

B9: MAB20-IgG4 (antibody, V domains shown)
VH: B8 VH with M48V, V50I
VL: B8 VL
With B9, in assay [1], the “Average EC50, IL-2 production, human TIGIT Jurkat/anti-CD3 HT-1080 co-culture assay” value was 0.68 nM. The binding result with human PVRL4-His was “no binding (tested: 200 nM)”. In addition, the Kd stood at 0.03 nM in assay [7] and 0.46 nM in assay [6]. Besides, the IC50 came to 2.3 nM in assay [4] and 1.9 nM in assay [5]. Moreover, the koff in assay [6] came out at 0.00038 s⁻¹. In addition, in assay [6], the association rate constant (kon) was found to be 890000 M⁻¹ s⁻¹.

B10: MAB21-IgG4 (antibody, V domains shown)
VH: B8 VH with V50I, A61T, Q65R
VL: B8 VL
For the molecule B10, in assay [1], the “Average EC50, IL-2 production, human TIGIT Jurkat/anti-CD3 HT-1080 co-culture assay” value amounted to 0.61 nM. Also, in the assay with human PVRL4-His, the binding result was “no binding (tested: 200 nM)”. Also, the Kd amounted to 0.08 nM in assay [7] and 0.36 nM in assay [6]. Further, the values for the IC50 in assay [4] and in assay [5] were 1 nM and 0.8 nM, respectively. The koff in assay [6] is 0.0005 s⁻¹. Moreover, the association rate constant (kon) in assay [6] was determined as 1.4e+06 M⁻¹ s⁻¹.

For orientation: Kd means the constant that tells how readily two partners part at equilibrium. For orientation: IC50 means the point on the concentration scale where inhibition reaches its midpoint. One may read the koff as a measure of how fast the partners let go of each other. A word on the kon: it is the second-order rate constant of association.
